Here are results for one substance from article doi:10.1101/2020.04.09.034520.

The assay has as its target FKBP_C-term (FKBP fused at its C-terminal end to the C-terminal NanoLuc fragment N2). Nature of the assay: split reporter.

Substance “FRB_N-term (FRB fused at its C-terminal end to the N-terminal NanoLuc fragment N1)” had a luminescence without rapamycin as percent of that with rapamycin of 3%.
